Data: US20180271995A1, “A PROTEIN CONJUGATE COMPRISING MULTIPLE PHYSIOLOGICALLY ACTIVE POLYPEPTIDES AND AN IMMUNOGLOBULIN FC REGION” (HANMI PHARM. CO., LTD., priority 2015, published 2018)
Where “and” joins values, the source holds several entries; their conditions need not be identical. Equal entries are not always repeated.

Key:
[1] = target: human GLP-1 receptor (human) (UniProt P43220); assay: cell-based or functional assay
[2] = target: human insulin receptor β (human) (UniProt P06213); assay: cell-based or functional assay
[3] = test system: mouse-derived 3T3-L1 cell line differentiated into adipocytes; assay: Glucose uptake test in 3T3-L1 cells differentiated into adipocytes (GOPOD residual glucose); format: cell-based; conditions: 3T3-L1 adipocytes, 24 hours; read-out: Glucose uptake (Insulin) EC50
Protocol: First, for analyzing the titer of insulin, a glucose uptake (or lipid synthesis ability) test was conducted using the mouse-derived 3T3-L1 cell line differentiated into adipocytes. […] The 3T3-L1 cell line was suspended in the medium for differentiation (DMEM containing 10% FBS), inoculated into a 48-well plate to a concentration of 5×10^4 cells/well, and cultured at 37° C. for 48 hours. […] The mixtures was added to each well in an amount of 250 μL/well after removing the existing medium.
For the glucose uptake test, the cells terminally differentiated into adipocytes were washed once with serum-free DMEM medium and serum-free DMEM medium was added into each well in an amount of 250 μL to induce serum depletion for 4 hours. […] Each of the thus-prepared samples was added to the cells in an amount of 250 μL, respectively, and cultured in a 5% CO2 incubator at 37° C. for 24 hours. For the measurement of the residual amount of glucose in the medium upon completion of cultivation, 200 μL of the medium was collected, diluted 5-fold with D-PBS, respectively, and subjected to GOPOD analysis (GOPOD Assay Kit, Megazyme, Cat. No. K-GLUC). The residual glucose concentration in the medium was calculated based on the absorbance of the standard glucose solution, and EC50 values for each of the samples with respect to glucose uptake ability was calculated and the result is shown in Table 9 below.

Substance	cAMP assay EC50 [1]	IR-β phosphorylation EC50 [2]	EC50 [3]
Immunoglobulin Fc	> 100 nM	> 1000 nM	–
human insulin	–	–	9 nM and 11 nM
